In assay [1] the target is T1, human VEGF (hVEGF) (human, UniProt P15692 181-395).
T1 sequence: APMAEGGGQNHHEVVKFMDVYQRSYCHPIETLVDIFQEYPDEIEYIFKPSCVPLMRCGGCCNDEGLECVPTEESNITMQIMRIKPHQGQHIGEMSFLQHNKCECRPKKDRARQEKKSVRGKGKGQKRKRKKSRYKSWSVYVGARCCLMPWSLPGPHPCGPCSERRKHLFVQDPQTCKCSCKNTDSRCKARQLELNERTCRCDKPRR
Briefly: cell-based or functional assay.

Assay [2] concerns the target T1, human VEGF (hVEGF). Description: SPR BIACORE kinetics.
Another assay concerns the target human VEGF165 (human, UniProt P15692-4 27-191). Briefly: cell-based or functional assay.
In assay [3] the target is T1, human VEGF (hVEGF). Briefly: SPR BIACORE T200, single cycle. In general terms: SPR reads the build-up and loss of mass on a sensor chip optically.
Procedure: To confirm the results obtained from the deep mutagenesis scanning, selected mutations were expressed and purified, and their affinity towards VEGF was measured using BIACORE® surface plasmon resonance (SPR) and their thermostability (as assessed by melting temperature, Tₘ) was measured using differential scanning fluorimetry (DSF).
To determine the binding affinity of selected Fab variants, SPR measurement with a BIACORE® T200 instrument was used. Briefly, series S sensor chip CM5 was activated with 1-ethyl-3-(3-dimethylaminopropyl) carbodiimide (EDC) and N-hydroxysuccinimide (NHS) reagents according to the supplier's instructions, and human VEGF (hVEGF) was coupled to achieve 50-80 response units (RU), then following by blocking un-reacted groups with 1 M ethanolamine.
Three-fold serial dilutions of Fab in HBS-P buffer (0.01 M HEPES pH 7.4, 0.15 M NaCl, 0.005% surfactant P20) from low (0.02 nM) to high (50 nM) were injected (flow rate: 30 μl/min). The binding responses on hVEGF were corrected by subtracting of RU from a blank flow cell. The sensorgram was recorded and subject to reference and buffer subtraction before evaluating by BIACORE® T200 Evaluation Software (version 2.0). Association rates (kₒₙ) and dissociation rates (koff) were calculated using a simple one-to-one Langmuir binding model. The equilibrium dissociation constant (Kd) was calculated as the ratio koff/kₒₙ.

The results in this text go back to US20170096479A1 (published 2017).

B1: G6.31 AAEE (LC-N94A.LC-F83A.HC-A40E.HC-T57E) (Fab, V domains shown)
VH: EVQLVESGGGLVQPGGSLRLSCAASGFTISDYWIHWVRQEPGKGLEWVAGITPAGGYEYYADSVKGRFTISADTSKNTAYLQMNSLRAEDTAVYYCARFVFFLPYAMDYWGQGTLVTVSS
VL: DIQMTQSPSSLSASVGDRVTITCRASQDVSTAVAWYQQKPGKAPKLLIYSASFLYSGVPSRFSGSGSGTDFTLTISSLQPEDAATYYCQQGYGAPFTFGQGTKVEIK
For B1, the “IC50 relative to G6.31, VEGF-induced HUVEC migration assay” value with human VEGF (hVEGF) [1] is 0.9 relative to G6.31.

B2: R19HCLC2 (Fab, V domains shown)
VH: EEQLVEEGGGLVQPGESLRLSCAASGFEISDYWIHWVRQEPGEGLEWVAGITPAGGYEYYADSVEGRFTISADTSENTAYLQMNELRAEDTAVYYCARFVFFLPYAMDYWGQGELVTVSS
VL: DIQMTQSPSSLSASVGDEVTITCRASQDVSTAVAWYQQKPGEAPKLLIYSASFLYSGVPSRFSGSGSGTDFTLTIESLQPEDAATYYCQQGYGAPFTFGQGTKVEIK
notes: Fab
What is called Kd is the concentration at which binding is half-saturated. A lower Kd goes with higher affinity. Regarding B2, the Kd with human VEGF (hVEGF) [2] amounted to 0.0949 nM.

B3: HA100K-G6.31 AARR (Fab, V domains shown)
VH: EVQLVESGGGLVQPGGSLRLSCAASGFTISDYWIHWVRQAPGKGLEWVAGITPAGGYTRYADSVKGRFTISADTSKNTAYLQMRSLRAEDTAVYYCARFVFFLPYAMDYWGQGTLVTVSS
VL: DIQMTQSPSSLSASVGDRVTITCRASQDVSTAVAWYQQKPGKAPKLLIYSASFLYSGVPSRFSGSGSGTDFTLTISSLQPEDAATYYCQQGYGAPFTFGQGTKVEIK
modifications: free hinge cysteine of the Fab-C heavy chain conjugated to maleimide-functionalized linear hyaluronic acid (Mw 100 kDa)
As for B3, the “qAC50 (equivalent to IC50), pKDR receptor activation assay on KDR-CHO cells” value with human VEGF165 worked out at 0.135 nM.

B4: G6.31 LC-N94A (Fab, V domains shown)
VH: EVQLVESGGGLVQPGGSLRLSCAASGFTISDYWIHWVRQAPGKGLEWVAGITPAGGYTYYADSVKGRFTISADTSKNTAYLQMNSLRAEDTAVYYCARFVFFLPYAMDYWGQGTLVTVSS
VL: DIQMTQSPSSLSASVGDRVTITCRASQDVSTAVAWYQQKPGKAPKLLIYSASFLYSGVPSRFSGSGSGTDFTLTISSLQPEDFATYYCQQGYGAPFTFGQGTKVEIK
Regarding B4, in the assay with human VEGF (hVEGF) [1], the “IC50 relative to G6.31, VEGF-induced HUVEC migration assay” value is 5.2 relative to G6.31.

B5: G6.31 HC-T57E (Fab, name in Kabat numbering, V domains shown)
VH: EVQLVESGGGLVQPGGSLRLSCAASGFTISDYWIHWVRQAPGKGLEWVAGITPAGGYEYYADSVKGRFTISADTSKNTAYLQMNSLRAEDTAVYYCARFVFFLPYAMDYWGQGTLVTVSS
VL: DIQMTQSPSSLSASVGDRVTITCRASQDVSTAVAWYQQKPGKAPKLLIYSASFLYSGVPSRFSGSGSGTDFTLTISSLQPEDFATYYCQQGYGNPFTFGQGTKVEIK
notes: Fab
What is called kon is the second-order rate constant of association. Read a low kon as slower complex formation. For the molecule B5, the kon with human VEGF (hVEGF) [3] stood at 1.93e+08 M⁻¹ s⁻¹.

B6: G6.31 LC-Q89T (Fab, V domains shown)
VH: EVQLVESGGGLVQPGGSLRLSCAASGFTISDYWIHWVRQAPGKGLEWVAGITPAGGYTYYADSVKGRFTISADTSKNTAYLQMNSLRAEDTAVYYCARFVFFLPYAMDYWGQGTLVTVSS
VL: DIQMTQSPSSLSASVGDRVTITCRASQDVSTAVAWYQQKPGKAPKLLIYSASFLYSGVPSRFSGSGSGTDFTLTISSLQPEDFATYYCTQGYGNPFTFGQGTKVEIK
notes: Fab
As to B6, the kon with human VEGF (hVEGF) [3] worked out at 1.17e+08 M⁻¹ s⁻¹.

B7: G6.31 LC-N94A.LC-F83A (Fab, V domains shown)
VH: EVQLVESGGGLVQPGGSLRLSCAASGFTISDYWIHWVRQAPGKGLEWVAGITPAGGYTYYADSVKGRFTISADTSKNTAYLQMNSLRAEDTAVYYCARFVFFLPYAMDYWGQGTLVTVSS
VL: DIQMTQSPSSLSASVGDRVTITCRASQDVSTAVAWYQQKPGKAPKLLIYSASFLYSGVPSRFSGSGSGTDFTLTISSLQPEDAATYYCQQGYGAPFTFGQGTKVEIK
Turning to B7, in the assay with human VEGF (hVEGF) [1], the “IC50 relative to G6.31, VEGF-induced HUVEC migration assay” value is 5.1 relative to G6.31.
